Measured values: PMC11952670

What was measured:
[1] = target: C-terminal domain of F-BclA (F-BclA-CTD) (Bacillus thuringiensis subsp. kurstaki); assay: crystal structure; F-BclA-CTD; 1M LiCl, 0.1M citrate pH 4.0, 20% (w/v) PEG 6000; P321
[2] = target: ExsF, first 23 residues replaced by a 6xHis tag (B. paranthracis); assay: crystal structure; co-crystallisation of 6xHis-ExsF with the synthetic F-Anchor peptide; 5% v/v T-mate pH 7, 0.1 M sodium cacodylate pH 5.3, 15% v/v PEG smear broad, 10% v/v ethylene glycol; 1.92 Å, P21

## C-terminal domain of F-BclA (F-BclA-CTD) (domain or fragment)
[1]
  stoichiometry N: 3

## ExsF, first 23 residues replaced by a 6xHis tag (domain or fragment)
[2]
  stoichiometry N: 3
